The values that follow come from patent US20050054023.

Series [1] has as its system T1, MBPtide (Thr97) APRTPGGRR
T1 sequence: APRTPGGR

The subject of series [2] is T2, TH (rat) Ser40 peptide GRRQSLIEDAR
T2 sequence: GRRQSLIEDAR

Series [3] relates to T3, EGF RECEPTOR (Thr669) peptide RRELVEPLTPSGEA
T3 sequence: RRELVEPLTPSGEA

Series [4] concerns T4, rat TH-Ser31 peptide KQAEAVTSPR
T4 sequence: KQAEAVTSPR

Series [5] has as its system T5, TH (rat) Ser8 peptide PTPSAPSPQPK
T5 sequence: PTPSAPSPQPK

Series [6] deals with T6, TH (rat) Ser19 peptide RRAVSEQDAK
T6 sequence: RRAVSEQDAK

Series [7] relates to T7, type 1 human TH-Ser31 peptide YQAEAIMSPRFIGRRQ
T7 sequence: YQAEAIMSPRFIGRRQ

For series [8], the system named is T8, type 2 human TH-Ser31 peptide EAIMVRGQSPRFK
T8 sequence: EAIMVRGQSPRFK

The subject of series [9] is T9, type 1 human TH-Ser31 peptide EAIMSPRFK
T9 sequence: EAIMSPRFK

Series [10] has as its system T10, type 2 human TH-Ser31 peptide YIMVRGQSPR
T10 sequence: YIMVRGQSPR

Series [11] concerns T11, peptide QATGPLSPGPFRR-NH2.
T11 sequence: QATGPLSPGPFRR

For series [12], the system named is T12, type 1 human TH-Ser31 peptide AIMSPRFIGRR
T12 sequence: AIMSPRFIGRR

Series [13] has as its system T13, type 2 human TH-Ser31 peptide IMVRGQSPR
T13 sequence: IMVRGQSPR

Series [14] relates to T14, rat TH-Ser31 peptide EAVTSPRFIGRR
T14 sequence: EAVTSPRFIGRR

Series [15] has as its system T15, type 1 human TH-Ser31 peptide YQAEAIMSPRFIGRR-NH2.
T15 sequence: YQAEAIMSPRFIGRR

Series [16] relates to T16, type 1 human TH-Ser31 peptide QAEAIMSPRFGRR-NH2.
T16 sequence: QAEAIMSPRFGRR

In a further series the test system is T17, peptide QATGPLSPGFRR-NH2.
T17 sequence: QATGPLSPGFRR

Series [17] has as its system T18, peptide YQATGPLSPGFRR-NH2.
T18 sequence: YQATGPLSPGFRR

The subject of series [18] is T19, peptide YQATGPLSPGPFRR-NH2.
T19 sequence: YQATGPLSPGPFRR

Series [19] relates to T20, rat TH-Ser31 peptide AVTSPRFIGRR
T20 sequence: AVTSPRFIGRR

In another series the test system is T21, ERKtide.
T21 sequence: ATGPLSPFGRR

The subject of series [20] is T22, type 1 human TH-Ser31 peptide EAIMSPRFIGRR
T22 sequence: EAIMSPRFIGRR

Chain of extracellular signal-regulated protein kinase 2 (purified, recombinant, activated ERK2) (P28482 2-360): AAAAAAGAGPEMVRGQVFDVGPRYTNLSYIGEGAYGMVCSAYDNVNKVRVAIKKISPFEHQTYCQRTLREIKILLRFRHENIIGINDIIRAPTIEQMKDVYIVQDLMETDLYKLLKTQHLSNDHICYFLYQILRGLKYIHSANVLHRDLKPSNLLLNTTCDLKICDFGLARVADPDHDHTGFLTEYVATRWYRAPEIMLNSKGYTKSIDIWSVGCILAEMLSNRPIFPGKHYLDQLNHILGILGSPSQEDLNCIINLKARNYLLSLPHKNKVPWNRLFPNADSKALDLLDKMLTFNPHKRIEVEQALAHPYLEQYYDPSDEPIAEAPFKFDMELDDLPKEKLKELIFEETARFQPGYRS
Chain of extracellular signal-regulated protein kinase 1 (purified, activated ERK1) (P27361 2-379): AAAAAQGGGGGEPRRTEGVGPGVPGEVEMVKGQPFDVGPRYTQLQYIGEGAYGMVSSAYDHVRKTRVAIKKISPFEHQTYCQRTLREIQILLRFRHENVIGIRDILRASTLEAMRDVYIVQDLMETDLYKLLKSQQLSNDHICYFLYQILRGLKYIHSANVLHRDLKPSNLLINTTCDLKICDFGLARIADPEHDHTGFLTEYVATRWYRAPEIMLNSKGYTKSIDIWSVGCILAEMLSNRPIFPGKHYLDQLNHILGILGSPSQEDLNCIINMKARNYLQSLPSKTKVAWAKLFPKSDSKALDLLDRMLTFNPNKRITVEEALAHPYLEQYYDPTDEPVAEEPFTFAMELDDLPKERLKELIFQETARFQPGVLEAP

In the case of “extracellular signal-regulated protein kinase 1 (purified, activated ERK1)”, the RELATIVE ^32P INCORPORATION (% OF MBP) in series [1] is 28 % OF MBP; in series [2], less than 1 % OF MBP; in the series with myelin basic protein it was 100 % OF MBP; in series [3] it was 13 % OF MBP; in [4], 5 % OF MBP; in [5], less than 1 % OF MBP. This substance also registered an RELATIVE ^32P INCORPORATION (% OF MBP) in series [6] of less than 1 % OF MBP. Moreover, the “^32P incorporation” value in [1] was “^32P incorporation into MBPtide (SEQ ID NO: 2) was 330 nmol/min/mg”.
Turning to “extracellular signal-regulated protein kinase 2 (purified, recombinant, activated ERK2)”, the Km(app) turned out to be 1000 µM in series [7]; 1400 µM in series [9]; 2000 µM in [1]; 1800 µM in series [4]; 600 µM in the series with ERKtide. The RELATIVE ^32P INCORPORATION (% 3.0 µmol/min/mg), Mean (% 3.0 µmol/min/mg) was determined as 100 in series [7]; 143 in series [11]; 117 in [15]; 107 in series [16]; 182 in the series on peptide QATGPLSPGFRR-NH2; 215 in series [17]. Further, the RELATIVE ^32P INCORPORATION (% 3.0 µmol/min/mg), Mean (% 3.0 µmol/min/mg) in series [18] stood at 164. Moreover, the RELATIVE ^32P INCORPORATION (% 3.3 µmol/min/mg) (% 3.3 µmol/min/mg) in [7] is 80; in [8], 2; in series [9] it was 21; in series [10], 1; in [12], 29; in [13], 1. Further, the RELATIVE ^32P INCORPORATION (% 3.3 µmol/min/mg) (% 3.3 µmol/min/mg) in series [14] worked out at 20; in series [15], 100; in [19] it was 9; in series [4], 7; in [20] it was 41. Moreover, the Vmax(app) Relative in [7] was 80 Relative; in series [9], 42 Relative; in [1], 46 Relative; in series [4] it was 9 Relative; in the series with ERKtide it was 82 Relative. Moreover, the “^32P incorporation” value is 100 percent ^32P incorporation reflects 3.0 µmol/min/mg in series [7] and 100 percent 32p incorporation reflects 3.3 µmol/min/mg in series [15]. In the series with ERKtide, the “apparent Vmax” value is “The apparent Vmax of ERKtide (SEQ ID NO: 23) was 9.4 µmol/min/mg”.
